Measurements as given in the supplement of paper PMC10724198.
± gives the standard deviation of the averaged measurements.

What was measured:
[1] = system: Saccharomyces cerevisiae; experiment: protein stability index of tFT-peptide fusion (C-terminal peptide) (PSI (0-1 scale)); higher = more stable (slower turnover)
Method: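 MPS profiling in S. cerevisiae of the tFT-X12 degron library: putative degron peptides plus stable controls, 12 aa, fused to the C-terminus of a sfGFP-mCherry timer. Cells are FACS-sorted into 8 mCherry/sfGFP bins and deep-sequenced. PSI runs from 0 (unstable) to 1 (stable). Backgrounds are wild type, das1Δ and doa10Δ at 30 °C, and wild type, das1Δ, cdc34-1 and cdc53-1 at 37 °C; 2-3 technical replicates each.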

[2] = system: Saccharomyces cerevisiae; experiment: as above; conditions: genetic background: wild type; temperature: 30 C
[3] = genetic background: cdc34-1, temperature: 37 C
[4] = genetic background: cdc53-1, temperature: 37 C
[5] = genetic background: das1 deletion, temperature: 30 C
[6] = genetic background: das1 deletion, temperature: 37 C
[7] = genetic background: doa10 deletion, temperature: 30 C
[8] = genetic background: wild type, temperature: 30 C
[9] = genetic background: wild type, temperature: 37 C
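Also: PSI is a weighted mean of sequencing reads over stability bins, variants kept only with over 10 reads, mCherry proximal and sfGFP distal, peptide attached via GGGS linker.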

Sequence | protein stability index [1, 3] | protein stability index [1, 4] | protein stability index [1, 5] | protein stability index [1, 6] | protein stability index [1, 7] | protein stability index [1, 8] | protein stability index [1, 9] | protein stability index [2]
VCLVAGVFFCLL | 0.5 ± 0.018 | 0.587 ± 0.025 | 0.44 ± 0.018 | 0.638 ± 0.021 | 0.422 ± 0.017 | 0.449 ± 0.014 | 0.575 ± 0.013 | 0.629 ± 0.24
VLGFRPLVFLCF | 0.235 ± 0.058 | 0.252 ± 0.029 | 0.324 ± 0.029 | 0.4637 ± 0.0028 | 0.392 ± 0.011 | 0.304 ± 0.013 | 0.392 ± 0.0027 | 0.3239 ± 0.0027
WLCLGLVVGLFL | 0.44 ± 0.0069 | 0.488 ± 0.013 | 0.383 ± 0.029 | 0.459 ± 0.0058 | 0.339 ± 0.031 | 0.362 ± 0.017 | 0.47 ± 0.015 | 0.433 ± 0.041
YWGFHPCCAFGY | 0.722 ± 0.048 | 0.784 ± 0.012 | 0.636 ± 0.013 | 0.77 ± 0.023 | 0.654 ± 0.035 | 0.659 ± 0.019 | 0.745 ± 0.051 | 0.711 ± 0.0091
PVLPPPLLLCPC | 0.0283 ± 0.018 | 0.0268 ± 0.011 | 0.119 ± 0.023 | 0.11 ± 0.024 | 0.0972 ± 0.0096 | 0.15 ± 0.018 | 0.0932 ± 0.032 | 0.22801 ± 2.4e-05
LLCLLLVPQPHR | 0.604 ± 0.015 | 0.66 ± 0.011 | 0.5965 ± 0.0049 | 0.651 ± 0.017 | 0.574 ± 0.027 | 0.584 ± 0.019 | 0.6376 ± 0.003 | 0.0268 ± 0.019
LWAPFWVSRVTA | 0.481 ± 0.017 | 0.513 ± 0.0085 | 0.408 ± 0.035 | 0.5677 ± 0.0039 | 0.21 ± 0.004 | 0.247 ± 0.026 | 0.42 ± 0.0086 | 0.347 ± 0.012
PRIVLFLRLHSN | 0.555 ± 0.082 | 0.651 ± 0.042 | 0.512 ± 0.014 | 0.6891 ± 0.002 | 0.107 ± 0.029 | 0.118 ± 0.02 | 0.2184 ± 0.0019 | 0.21 ± 0.0069
ASLVGGVLLVVV | 0.495 ± 0.0051 | 0.5 ± 0.012 | 0.346 ± 0.032 | 0.535 ± 0.0056 | 0.313 ± 0.017 | 0.352 ± 0.022 | 0.502 ± 0.022 | 0.454 ± 0.011
SVFSFCLCVGVV | 0.285 ± 0.0083 | 0.363 ± 0.076 | 0.266 ± 0.028 | 0.402 ± 0.011 | 0.213 ± 0.014 | 0.253 ± 0.033 | 0.358 ± 0.0064 | 0.294 ± 0.066
RRMGLRLFLLWM | 0.649 ± 0.045 | 0.657 ± 0.0097 | 0.534 ± 0.026 | 0.67 ± 0.015 | 0.354 ± 0.021 | 0.348 ± 0.032 | 0.539 ± 0.015 | 0.4517 ± 0.0011
TEHIIAFKASVN | 0.546 ± 0.0031 | 0.7284 ± 0.0037 | 0.626 ± 0.033 | 0.71 ± 0.01 | 0.0901 ± 0.025 | 0.104 ± 0.024 | 0.153 ± 0.028 | 0.214 ± 0.02
TSRRPFVLVMWL | 0.504 ± 0.0061 | 0.599 ± 0.0078 | 0.405 ± 0.04 | 0.6229 ± 0.0049 | 0.363 ± 0.011 | 0.388 ± 0.035 | 0.576 ± 0.027 | 0.485 ± 0.015
KMKGLINKRKES | 0.533 ± 0.05 | 0.657 ± 0.01 | 0.655 ± 0.037 | 0.68 ± 0.015 | 0.146 ± 0.0029 | 0.12 ± 0.05 | 0.233 ± 0.027 | 0.219 ± 0.0027
HLRWYITGIVWF | 0.4885 ± 0.0024 |  | 0.413 ± 0.11 | 0.671 ± 0.17 | 0.311 ± 0.019 | 0.359 ± 0.087 | 0.543 ± 0.017 | 0.4216 ± 0.00048
